Among the data in article PMC6941993 (2020) are Kd values, retold here.

In the experiment the target is stand-alone apical domain (sAD) designed from White-throated woodrat TfR1 (Neotoma albigula (White-throated …, N-linked glycan at Asn251 seen in the crystal)); two putative N-glycosylation sites (Asn204, Asn251), both partially glycosylated). The experiment in a line: SPR. Background: Surface plasmon resonance follows binding to a sensor surface in real time, without labels.

B1: GP1_(GTOV)–Fc (Fc fusion)
chain: ELPSLCRVNNSYSLIRLSHNSNQALSVEYVDVHPVLCSSSPTILDNYTQCIKGSPEFDWILGWTIKGLGHDFLRDPRICCEPKKTTNAEFTFQLNLTDSPETHHYRSKIEVGIRHLFGNYITNDSYSKMSVVMRNTTWEGQCSN
Consider B1, for which binding was characterised by a dissociation constant (Kd) of 360 nM.

B2: GP1_(SBAV)–Fc (Fc fusion)
chain: DHPTSCMVNHSTYYVHENKNATWCLEVSVTDVTLLMAEHDRQVLNNLSNCVHPAVEHRSRMVGLLEWIFRALKYDFNHDPTPLCQKQTSTVNETRVQINITEGFGSHGFEDTILQRLGVLFGSRIAFSNIQDLGKKRFLLIRNSTWKNQCEM
Turning to B2, binding was put at a Kd of 63 nM.
